Assay [1] has as its target IL-2Rβγc (species not stated, Figure E3d) (not stated (human and mouse receptors made)) (UniProt P14784). Description: BLI. For orientation: In BLI a coated tip is dipped into the sample, and binding shifts an interference pattern.
In assay [2] the target is mouse IL-2Rβ ectodomain, biotinylated (mouse). The experiment in a line: SPR. (In general: Surface plasmon resonance follows binding to a sensor surface in real time, without labels.)
Assay [3] has as its target human IL-2Rβ, biotinylated (human) (UniProt P14784). Description: SPR.
For assay [4], the target named is human IL-2 receptor βƔc heterodimer (human) (UniProt P14784). Description: SPR.
In assay [5] the target is mouse IL-2 receptor βƔc heterodimer (mouse). Description: SPR.
The target is the same in assay [6].
Assay [7] has as its target human IL-2 receptor βƔc heterodimer (human) (UniProt P14784).

A word on the Kd: it is the constant that tells how readily two partners part at equilibrium. A lower Kd goes with a tighter complex.

For Neoleukin-2/15 (designed binder), the Kd was 6.9 nM in assay [1]; 16.1 nM in assay [2]; 11.2 nM in assay [3]; 18.8 nM in assay [4]; 38.4 nM in assay [5]. In addition, the EC50 of STAT5 phosphorylation in IL-2Rα- mouse primary T cells in assay [6] is 0.13 nM. The same molecule registered an EC50 of STAT5 phosphorylation in IL-2Rα- (CD25-) human YT-1 NK cells in assay [7] of 0.05 nM.
As to “Super-2 / Superkine (from UniProt P60568 21-153) (ligand)”, the dissociation constant (Kd) came to 214 nM in assay [2], 301 nM in assay [4] and 312 nM in assay [5].
Turning to “human interleukin-2 (from UniProt P60568 21-153) (ligand)”, the Kd amounted to 8110 nM in assay [2] and 492 nM in assay [5].

B1: mouse interleukin-2 (ligand)
chain: APTSSSTSSSTAEAQQQQQQQQQQQQHLEQLLMDLQELLSRMENYRNLKLPRMLTFKFYLPKQATELKDLQCLEDELGPLRHVLDLTQSKSFQLEDAENFISNIRVTVVKLKGSDNTFECQFDDESATVVDFLRRWIAFCQSIISTSPQ
On to B1, for which, in assay [2], the Kd is 1500 nM.
